B1: Ligand-dependent nuclear receptor-interacting factor 1 (Homo sapiens), Q5T3J3 (parent)
chain: MSNNLRRVFLKPAEENSGNASRCVSGCMYQVVQTIGSDGKNLLQLLPIPKSSGNLIPLVQSSVMSDALKGNTGKPVQVTFQTQISSSSTSASVQLPIFQPASSSNYFLTRTVDTSEKGRVTSVGTGNFSSSVSKVQSHGVKIDGLTMQTFAVPPSTQKDSSFIVVNTQSLPVTVKSPVLPSGHHLQIPAHAEVKSVPASSLPPSVQQKILATATTSTSGMVEASQMPTVIYVSPVNTVKNVVTKNFQNIYPKPVTEIAKPVILNTTQIPKNVATETQLKGGQHSQAAPVKWIFQDNLQPFTPSLVPVKSSNNVASKILKTFVDRKNLGDNTINMPPLSTIDPSGTRSKNMPIKDNALVMFNGKVYLLAKKGTDVLPSQIDQQNSVSPDTPVRKDTLQTVSSSPVTEISREVVNIVLAKSKSSQMETKSLSNTQLASMANLRAEKNKVEKPSPSTTNPHMNQSSNYLKQSKTLFTNPIFPVGFSTGHNAPRKVTAVIYARKGSVLQSIEKISSSVDATTVTSQQCVFRDQEPKIHNEMASTSDKGAQGRNDKKDSQGRSNKALHLKSDAEFKKIFGLTKDLRVCLTRIPDHLTSGEGFDSFSSLVKSGTYKETEFMVKEGERKQQNFDKKRKAKTNKKMDHIKKRKTENAYNAIINGEANVTGSQLLSSILPTSDVSQHNILTSHSKTRQEKRTEMEYYTHEKQEKGTLNSNAAYEQSHFFNKNYTEDIFPVTPPELEETIRDEKIRRLKQVLREKEAALEEMRKKMHQK

Variants of B1 are the subject of the assay. The settings on record: with cbx5_human CBX5, P45973.
cbx5_human CBX5, P45973, sequence (P45973 whole entry): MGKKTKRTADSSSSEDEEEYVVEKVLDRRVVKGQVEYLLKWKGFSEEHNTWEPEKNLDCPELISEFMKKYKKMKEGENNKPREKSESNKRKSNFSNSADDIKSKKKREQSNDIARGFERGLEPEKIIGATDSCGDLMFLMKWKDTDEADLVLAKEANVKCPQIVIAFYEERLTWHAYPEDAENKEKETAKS
For the variant V582D;L584E, the “effect of a mutation on the interaction” value is “disrupting interaction strength”.

For the origin of these results see IntAct's records for PubMed 23542155.
